Source: the supplement of paper PMC9170038

Test system: MS2 coat protein
Test: apparent KD of MS2 coat protein; designed switch direction (-1 OFF switch, 1 ON switch): 1; higher = weaker reporter binding
In short: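 RNA switches sharing common flanks were transcribed by stalled E. coli RNA polymerase on Illumina chips. A doubling series of SNAP-549-labelled MS2 coat protein, from 0.7 or 1.5 nM to 3 µM, was applied in Tris-HCl pH 7.5 buffer with KCl, MgCl2, BSA, DTT, tRNA and Tween-20. Each step lasted 0.8–1.5 h at the bottom of the series and 10–20 min at the top. Normalised cluster fluorescence was curve-fitted, giving apparent KD as the per-design median over clusters.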

[1] = Eterna round: R95, input ligand: FMN 200 uM
[2] = Eterna round: R95, input ligand: microRNA oligo, concentration not stated
[3] = Eterna round: R95, input ligand: none
[4] = input ligand: microRNA oligo, concentration not stated

Sequence | apparent KD of MS2 coat protein [1] | apparent KD of MS2 coat protein [2] | apparent KD of MS2 coat protein [3] | apparent KD of MS2 coat protein (input ligand: FMN 200 uM) | apparent KD of MS2 coat protein [4] | apparent KD of MS2 coat protein (input ligand: none)
AUAAGGCAAGCUUUUUUCUCGUAGUGUAAACAUGAGGAUCACCCAUGUGCCCACCCUGGAUCUUUGAAUCGCAGAAC [Dianancete] (puzzle: Sensor for hsa-mir-208a) | 0.0267 µM | 0.0166 µM | 0.0273 µM | – | – | –
AUUAAACAUGAGGAUCACCCAUGUCAACAAAGUCGAGGAUAUGGGCAUAUUAUAUAAUAACCAGAAGGCGAAUAAU [salish99_ss1_r3_084] (puzzle: Same State 1) | 0.0111 µM | 0.0128 µM | 0.0138 µM | – | – | –
AGUAUACAUGAGGAUCACCCAUGUCAACGUAGUCGAGGAUAUGGGCAGCCGUGAGGCGUACCAGAAGGCGAAGAGA [Mat - Same State 1 - Mod of JL - D5] (puzzle: Same State 1) | 0.0245 µM | 0.0505 µM | 0.0686 µM | – | – | –
GCUGGAAACCACAUGAGGAUCACCCAUGUUCCGGAAACGGCGCAGGAUAUCUGUCCGAAAAGGUCAGAGAAGGGUGAAACCAGC [Fiskers NG3ss - 80] (Eterna round: R96, puzzle: Same State NG 3) | – | – | – | 0.6 µM | 0.387 µM | 0.346 µM
AUUCGUUUGAUAGGAUAUCACUUUACAUGAGGAUCACCCAUGUUCACCACGCUGGUUUCUUAUACUGAGAAGGAUCUUGAUGAC [JR_SSNG2_Sub010] (Eterna round: R96, puzzle: Same State NG 2) | – | – | – | 0.0195 µM | 0.0171 µM | 0.0313 µM
UUACUCAUGUAAGGAUAUGCAGCCGUUUCGGCUGCAGAAGGUACUAUAAUACAUGAGGAUCACCCAUGUCUAUAAAAUAAAGAC [Mat - Same State NG 1 - JL mod - D81] (Eterna round: R96, puzzle: Same State NG 1) | – | – | – | 0.0695 µM | 0.024 µM | 0.0325 µM
AGGCUGAGUCGAGGAUAUUAUGGAUCCUCUAAUACAUGAGGAUCACCCAUGUAAUUAAUUAUACAUGAGAAGGCGACUCAGCCU [SSNG2/12-A4] (Eterna round: R96, puzzle: Same State NG 2) | – | – | – | 0.533 µM | 0.015 µM | 0.0347 µM
GGAAUAUUUACAGGAUAUGUUUUGUUAAGUCGAGCAGAAGGGUGGAUGUCUUACACGGUUUGUUACAUGAGGAUCACCCAUGUC [SameState NG1 #15] (Eterna round: R96, puzzle: Same State NG 1) | – | – | – | – | 0.188 µM | –
GACUAUCUAUCUCAGGAUAUCAUGUCAAAGACAUGAGGAUCACCCAUGUACCAGGAAACUGGUUAUGAGAAGGGAGAUAGAUAGG [Mat - Same State 2 - Mod - D43] (puzzle: Same State 2) | 0.0811 µM | 0.0263 µM | 0.0388 µM | – | – | –
AUAAGGCAAGCUUUUUUCUCGUAGUGUAAACAUGAGGAUCACCCAUGUGCCCACCCUGGAUCUUUGGAUCGCAGAAC [Sobiisarre] (puzzle: Sensor for hsa-mir-208a) | 0.0203 µM | 0.0152 µM | 0.0227 µM | – | – | –
GCUACCAUUGAAGCCAACAUGAGGAUCACCCAUGUAUGUUGGUAGGAUAUCGUUUGCUUUGCAAACGAGAAGGGCUAAGGUAGC [JL SSNG3 1.27] (Eterna round: R96, puzzle: Same State NG 3) | – | – | – | 0.0722 µM | 0.0574 µM | 0.0771 µM
